Laboratory results reported in PMC5030187 (Biochemistry, 2016).

Biological target: the molecule itself
Assay: crystal structure

B1: Ag(I)-bound periplasmic sensor domain of E. coli histidine kinase CusS, CusS(39-187) (domain or fragment, UniProt P77485 39-187, looked up)
chain: VKVHFAEQDINDLKEISATLERVLNHPDETQARRLMTLEDIVSGYSNVLISLADSQGKTVYHSPGAPDIREFTRDAIPDKDAQGGEVYLLSGPTMMMPGHGHGHMEHSNWRMINLPVGPLVDGKPIYTLYIALSIDFHLHYINDLMNKL
stoichiometry N: 2
